Legend:
[1] = target: mCherry-LaM3 complex (llama); experiment: ITC; 100 uM nanobody in the syringe into 10 uM mCherry (or 8.9 uM mCherry-LaM1 or mCherry-LaM3 complex) in the cell; 25 °C; one set of sites
[2] = target: mCherry-LaM1 complex (llama); experiment: as above

Kd [1]: 236 nM | dH [1]: -9.99 kcal/mol | stoichiometry N [1]: 0.799 sites | Kd [2]: 54 nM | dH [2]: -10.3 kcal/mol | stoichiometry N [2]: 0.854 sites
B1: LaM8 (VHH)
VHH: QVQLVESGGGLVQAGGSLRLSCAVSGRPFSEYNLGWFRQAPGKEREFVARIRSSGTTVYTDSVKGRFSASRDNAKNMGYLQLNSLEPEDTAVYYCAMSRVDTDSPAFYDYWGQGTQVTVST
